Assays:
Variant 2: xPro1.FL-x2 = target: T1, Variant 2: xPro1.FL-x2 (human; mouse); test: FACS, 1 ug/mL antibody, transfected 293F cells
T1 construct: Chimeric full-length LAG-3 on transfected 293F cells
T1 chain: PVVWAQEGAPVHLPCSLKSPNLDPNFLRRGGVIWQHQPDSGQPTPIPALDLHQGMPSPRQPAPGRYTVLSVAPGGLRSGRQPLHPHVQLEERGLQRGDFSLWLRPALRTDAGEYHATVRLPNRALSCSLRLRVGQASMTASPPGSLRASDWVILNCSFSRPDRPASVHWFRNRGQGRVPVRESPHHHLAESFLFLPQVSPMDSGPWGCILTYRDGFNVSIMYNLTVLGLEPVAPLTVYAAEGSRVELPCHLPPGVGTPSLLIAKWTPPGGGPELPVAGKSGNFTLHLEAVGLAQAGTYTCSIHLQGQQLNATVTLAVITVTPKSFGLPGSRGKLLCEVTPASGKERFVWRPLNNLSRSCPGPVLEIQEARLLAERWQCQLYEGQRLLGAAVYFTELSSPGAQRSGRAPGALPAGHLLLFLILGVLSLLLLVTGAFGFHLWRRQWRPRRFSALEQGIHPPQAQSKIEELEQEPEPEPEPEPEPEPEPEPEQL
Protocol: (§1) The 10 variants were cloned into pcDNA3 vector and used for 293F cell transfection. Briefly, 293F cells were diluted to a density of 1×10⁶ cells/mL with FreeStyle 293F medium and aliquots of 3 mL/well were added to 24-well plate. Transfections were performed using 293fectin reagent (Life Technologies). For each transfection, 3 μg of DNA were diluted in 150 μOpti-MEM I-reduced serum medium (Life Technologies), and then combined with 6μL 293fectin reagent pre-diluted in 150 μL Opti-MEM I reduced serum medium. The DNA/[…] mixture was allowed to stand at 25° C. for 20 min before being added to the culture. The transfected cells were analyzed by flow cytometry at 48 h post-transfection.
(§2) Binding of antibodies to chimeric LAG-3 variants or full length human/mouse LAG-3 was analyzed by flow cytometry. Briefly, 1 μg/mL antibodies were incubated with chimeric LAG-3-expressing transfected 293F cells for 1 hour at 4° C., and then incubated with 3 μg/mL goat anti-human IgG Fc R-PE (Jackson) for 40 min at 4° C. Cells were analyzed with flow cytometer.

Variant 9: xPro1.FL-x9 = target: T2, Variant 9: xPro1.FL-x9 (human; mouse); test: FACS, 1 ug/mL antibody, transfected 293F cells
T2 construct: Chimeric full-length LAG-3 on transfected 293F cells
T2 chain: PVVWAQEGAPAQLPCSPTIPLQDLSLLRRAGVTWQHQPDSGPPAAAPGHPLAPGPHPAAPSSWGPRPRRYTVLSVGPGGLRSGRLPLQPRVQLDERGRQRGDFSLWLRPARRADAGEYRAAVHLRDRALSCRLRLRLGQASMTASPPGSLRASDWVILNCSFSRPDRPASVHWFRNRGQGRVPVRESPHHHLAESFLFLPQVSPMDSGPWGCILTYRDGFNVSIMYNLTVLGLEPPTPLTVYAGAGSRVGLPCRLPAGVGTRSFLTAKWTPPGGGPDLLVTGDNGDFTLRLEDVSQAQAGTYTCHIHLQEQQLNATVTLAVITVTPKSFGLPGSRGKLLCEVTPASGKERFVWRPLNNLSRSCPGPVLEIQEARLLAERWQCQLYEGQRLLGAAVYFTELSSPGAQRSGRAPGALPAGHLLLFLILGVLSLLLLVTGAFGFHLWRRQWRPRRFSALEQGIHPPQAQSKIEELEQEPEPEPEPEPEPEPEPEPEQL
Protocol: as §1, §2

[1] = target: T3, human LAG-3-ECD.D12.mFc mutant G37A (human, UniProt P18627 38-252); test: ELISA, antibody coated, LAG-3 D12.mFc mutant in supernatant, normalised to control mutants
T3 construct: Alanine scanning mutant; construct limits as for m26
T3 sequence: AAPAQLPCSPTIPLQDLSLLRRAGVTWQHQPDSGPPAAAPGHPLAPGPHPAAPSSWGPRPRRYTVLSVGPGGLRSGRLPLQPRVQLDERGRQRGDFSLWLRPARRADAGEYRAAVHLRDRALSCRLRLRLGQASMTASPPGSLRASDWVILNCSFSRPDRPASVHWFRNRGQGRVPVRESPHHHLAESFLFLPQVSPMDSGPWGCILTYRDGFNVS
Protocol: (§3) For ELISA binding assay, the antibody 1.53.3-uAb-IgG4k or 3.40.19-uAb-hIgG4L (2 μg/mL) was coated in plates. After interacting with the supernatant that contains quantified LAG-3 mutants or human LAG-3-ECD.D12.mFc protein, HRP conjugated anti-mFc antibody (1:5000; Bethyl, USA) was added as a detection antibody. Absorbance was normalized according to the average absorbance of control mutants. After setting an additional cutoff to the binding fold change (<0.75), the final determined epitope residues were identified.

[2] = target: T4, human LAG-3-ECD.D12.mFc mutant A59G (human, UniProt P18627 37-252); test: as above
T4 construct: construct limits as for m26
T4 chain: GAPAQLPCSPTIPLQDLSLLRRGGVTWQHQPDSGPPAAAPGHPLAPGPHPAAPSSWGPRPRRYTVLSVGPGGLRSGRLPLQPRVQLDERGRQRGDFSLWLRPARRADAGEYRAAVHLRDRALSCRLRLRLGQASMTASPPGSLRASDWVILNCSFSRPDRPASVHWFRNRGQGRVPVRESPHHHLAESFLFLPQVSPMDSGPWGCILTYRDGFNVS
Protocol: as §3

[3] = target: T5, human LAG-3-ECD.D12.mFc mutant W63A (human, UniProt P18627 37-252); test: as above
T5 construct: Alanine scanning mutant; construct limits as for m26
T5 chain: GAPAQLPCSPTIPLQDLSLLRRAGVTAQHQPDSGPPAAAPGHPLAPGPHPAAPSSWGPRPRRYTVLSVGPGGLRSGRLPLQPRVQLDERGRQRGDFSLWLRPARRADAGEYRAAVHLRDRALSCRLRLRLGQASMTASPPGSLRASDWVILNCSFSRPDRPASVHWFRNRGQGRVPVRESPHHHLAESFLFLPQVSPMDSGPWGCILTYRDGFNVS
Protocol: as §3

[4] = target: T6, human LAG-3-ECD.D12.mFc mutant E146A (human, UniProt P18627 37-252); test: as above
T6 construct: Alanine scanning mutant; construct limits as for m26
T6 chain: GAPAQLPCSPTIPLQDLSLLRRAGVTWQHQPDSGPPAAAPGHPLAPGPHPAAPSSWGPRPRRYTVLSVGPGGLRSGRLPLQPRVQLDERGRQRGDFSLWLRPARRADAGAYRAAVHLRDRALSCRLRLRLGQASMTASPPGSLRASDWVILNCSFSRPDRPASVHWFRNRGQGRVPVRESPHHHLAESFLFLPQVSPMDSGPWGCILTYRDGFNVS
Protocol: as §3

B1: 3.40.19-uAb-IgG4L (antibody, V domains shown)
VH: QLQLQESGPGLVKPSETLSLTCTVSGDSISSTSYYWGWIRQPPGKGLEWIGSFYYSGSTYYNPSLKSRVTISVDTSKNQFSLKLNSVTAADTAVYYCARMQLWSYDVDVWGQGTTVTVSS
VL: QSALTQPASVSGSPGQSITISCTGTSSDVGGYDYVAWYQQHPGKVPKLMIYDVSERPSGVSNRFSGSKSGNTASLTISGLQAEDEADYYCSSYTSTTTLVVFGGGTKLSVL
notes: Fully human antibody from OMT rats; IgG4 lambda by its name; also called 3.40.19-uAb-hIgG4L
MFI (Variant 2: xPro1.FL-x2): 40.6 | PE+ % (Variant 2: xPro1.FL-x2): 0.305% | MFI (Variant 9: xPro1.FL-x9): 8320 | PE+ % (Variant 9: xPro1.FL-x9): 87.3% | Fold Change [1]: 0.284 | Fold Change [2]: 0.542 | Fold Change [3]: 0.171 | Fold Change [4]: 0.582

B2: 1.53.3-uAb-IgG4k (antibody, V domains shown)
VH: QVQLQQWGAGLLKPSETLSLTCGVYGGSFSGYYWSWIRQPPGMGLEWIGEINHRGNTNYNPSLKSRVTISEDTSKNQFSLRLSSVTAADTAVYFCTRGEDYSDYDYYGDFWGQGTLVTVSS
VL: EIVLTQSPATLSLSQGERATLSCRASQSISSYLAWYQQKPGQAPRLLIYAASNRATGIPARFSGSGSGTDFTLTISSLEPEDFAIYYCQQRSNWPLTFGGGTKVEIK
notes: Fully human antibody from OMT rats; IgG4 kappa by its name
MFI (Variant 2: xPro1.FL-x2): 45 | PE+ % (Variant 2: xPro1.FL-x2): 1.77% | MFI (Variant 9: xPro1.FL-x9): 7030 | PE+ % (Variant 9: xPro1.FL-x9): 97.3% | Fold Change [1]: 0.558 | Fold Change [2]: 0.718 | Fold Change [3]: 0.585 | Fold Change [4]: 0.701

From patent US20200407442A1 (WUXI BIOLOGICS IRELAND, published 2020)
